Experimental data taken from patent US20230037911A1 (SHANGHAI HENLIUS BIOTECH, published 2023).

Experiments:
[1] = biological target: T1, recombinant protein of his-tagged human TIGIT ECD (human, UniProt Q495A1 22-138); test: Octet biolayer interferometry; BsAb loaded on the sensor, his-tagged h-TIGIT ECD at different concentrations (not given), then h-PDL1 ECD
T1 construct: Used in Octet assays; also called h-TIGIT ECD (his-tagged); not shown: his tag
T1 sequence: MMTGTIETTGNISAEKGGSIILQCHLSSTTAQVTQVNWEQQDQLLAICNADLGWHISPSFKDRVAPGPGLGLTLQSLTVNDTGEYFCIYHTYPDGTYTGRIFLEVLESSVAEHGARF
Description: The sensors were loaded with BsAbs and then injected with different concentrations of recombinant protein of h-TIGIT ECD (his-tagged). After association of BsAbs with h-TIGIT, the sensors were injected again with different concentrations of recombinant protein of h-PDL1 ECD (his-tagged). […] Y axis represents association/disassociation and Rmax, X axis represents time in second.

[2] = biological target: T2, human TIGIT stably expressed on cells (Jurkat; 293T) (human, UniProt Q495A1 22-244); test: flow cytometry on h-TIGIT stably transfected Jurkat cells; anti-h-IgG Fc AlexaFluor488 secondary
T2 construct: the expression vector's insert is not described further; also called h-TIGIT; human TIGIT transfected Jurkat cells
T2 sequence: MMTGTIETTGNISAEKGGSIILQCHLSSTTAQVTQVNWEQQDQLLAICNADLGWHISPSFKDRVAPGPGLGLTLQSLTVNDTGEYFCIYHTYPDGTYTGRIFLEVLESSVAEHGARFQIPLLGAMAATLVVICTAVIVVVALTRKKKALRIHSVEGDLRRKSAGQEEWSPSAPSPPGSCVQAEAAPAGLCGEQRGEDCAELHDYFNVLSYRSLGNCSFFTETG

[3] = biological target: T2, human TIGIT stably expressed on cells …; test: cell-based or functional assay
[4] = biological target: T3, recombinant ECD of human FcγRIIB (human, UniProt P31994 43-217); test: Octet (ForteBio) biolayer interferometry; sensor loaded with recombinant ECD of human FcγRIIB; antibody at 5 concentrations (not given)
T3 construct: extracellular domain
T3 sequence (looked up): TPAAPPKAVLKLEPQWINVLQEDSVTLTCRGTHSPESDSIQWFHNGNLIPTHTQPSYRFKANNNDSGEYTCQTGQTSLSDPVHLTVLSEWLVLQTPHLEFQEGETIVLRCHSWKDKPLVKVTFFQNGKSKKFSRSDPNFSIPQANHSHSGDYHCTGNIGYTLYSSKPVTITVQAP
Description: (§1) Y axis represents association, dissociation & Rmax. X axis represents time in second.

[5] = biological target: human FcγRIIIA on NFAT reporter Jurkat cells (human, UniProt P08637 17-254); test: cell-based or functional assay
human FcγRIIIA on NFAT reporter Jurkat cells, sequence (P08637 17-254): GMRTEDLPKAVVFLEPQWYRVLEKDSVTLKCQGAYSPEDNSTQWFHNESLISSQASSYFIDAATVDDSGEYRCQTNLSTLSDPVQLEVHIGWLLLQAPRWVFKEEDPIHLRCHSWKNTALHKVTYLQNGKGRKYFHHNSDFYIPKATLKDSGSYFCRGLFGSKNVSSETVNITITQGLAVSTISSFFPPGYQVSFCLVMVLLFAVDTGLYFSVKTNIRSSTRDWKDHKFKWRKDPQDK

[6] = biological target: T4, recombinant ECD of mouse FcγRIV (mouse, UniProt A0A0B4J1G0 21-203); test: Octet (ForteBio) biolayer interferometry; sensor loaded with recombinant ECD of mouse FcγRIV; antibody at 5 concentrations (not given)
T4 sequence: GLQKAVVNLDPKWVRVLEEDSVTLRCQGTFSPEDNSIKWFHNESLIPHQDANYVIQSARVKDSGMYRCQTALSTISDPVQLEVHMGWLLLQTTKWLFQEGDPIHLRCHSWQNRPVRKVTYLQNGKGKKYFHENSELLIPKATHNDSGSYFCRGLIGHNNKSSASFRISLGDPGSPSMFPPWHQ
Description: as §1

[7] = biological target: T2, human TIGIT stably expressed on cells …; test: flow cytometry on Jurkat cells stably expressing h-TIGIT; VHH samples heated at 25 to 70 °C for 60 min (thermostability); concentration not given
Description: (§2) FIGS. 6A and 6B depict thermostability tested for representative clones. The VHH antibody samples were heated from 25 to 70° C. for 60 min. Binding of heated samples to human TIGIT was examined using ELISA or whole cell binding. […] Y axis represents OD450 obtained from the ELISA assay. X axis represents temperature for the treatment. […] Y axis represents percentage of binding to h-TIGIT. X axis represents temperature for the treatment.

[8] = biological target: T5, recombinant human TIGIT extra cellular domain (ECD) protein (human, UniProt Q495A1 22-138); test: ELISA on h-TIGIT ECD; VHH samples heated at 25 to 70 °C for 60 min (thermostability); concentration not given
T5 construct: Purchased protein; it begins with the signal peptide; also called h-TIGIT ECD; human TIGIT ECD
T5 sequence: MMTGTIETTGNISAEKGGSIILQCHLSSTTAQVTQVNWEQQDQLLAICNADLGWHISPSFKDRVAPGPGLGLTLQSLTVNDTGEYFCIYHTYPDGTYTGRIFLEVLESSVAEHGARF
Description: as §2

[9] = biological target: T2, human TIGIT stably expressed on cells …; test: whole cell binding
[10] = biological target: T5, recombinant human TIGIT extra cellular …; test: blocking ELISA, PVR as competitor

B1: anti-TIGIT x anti-PDL1 bispecific antibody LCN (VHH 2A3 fused to the N-terminal of the anti-PDL1 light chain) (bispecific antibody, human IgG1, lambda)
heavy: not shown
light: QVQLVESGGGVVQPGRSLRLSCAASGGSFSSYPMGWFRQAPGKERESVAAISSDMRFTYYADSVKGRFTISRDNSKNTLYLQMNSLRAEDTAVYYCAARDSGVGYYSRAQWYDYWGQGTLVTVSSGSGGSGGSGGSGQSVVTQPPPVSGAPGQRVTISCTGSSSNVGAGYDVHWYQQLPGTAPKLLIYGNSQRSSGVPDRFSGSKSGTSASLAITGLQAEDEADYYCQTYDSSGSARVVFGGGTKLTVLGQPKAAPSVTLFPPSSEELQANKATLVCLISDFYPGAVTVAWKADSSPVKAGVETTTPSKQSNNKYAASSYLSLTPEQWKSHKSYSCQVTHEGSTVEKTVAPTECS
notes: also called aTIGITx aPDL1-LCN
[1]
  binding result: binds
[2]
  binding result: binds

B2: anti-TIGIT x anti-PDL1 bispecific antibody LCC (VHH 2A3 fused to the C-terminal of the anti-PDL1 light chain) (bispecific antibody, human IgG1, lambda)
heavy: not shown
light: QSVVTQPPPVSGAPGQRVTISCTGSSSNVGAGYDVHWYQQLPGTAPKLLIYGNSQRSSGVPDRFSGSKSGTSASLAITGLQAEDEADYYCQTYDSSGSARVVFGGGTKLTVLGQPKAAPSVTLFPPSSEELQANKATLVCLISDFYPGAVTVAWKADSSPVKAGVETTTPSKQSNNKYAASSYLSLTPEQWKSHKSYSCQVTHEGSTVEKTVAPTECSGSGGSGGSGGSGQVQLVESGGGVVQPGRSLRLSCAASGGSFSSYPMGWFRQAPGKERESVAAISSDMRFTYYADSVKGRFTISRDNSKNTLYLQMNSLRAEDTAVYYCAARDSGVGYYSRAQWYDYWGQGTLVTVSS
notes: likely a printing error; also called aTIGITx aPDL1-LCC
[1]
  binding result: binds
[2]
  binding result: binds

B3: anti-TIGIT x anti-PDL1 bispecific antibody HCC (VHH 2A3 fused to the C-terminal of the anti-PDL1 heavy chain) (bispecific antibody, human IgG1, lambda)
heavy: not shown
light: QSVVTQPPPVSGAPGQRVTISCTGSSSNVGAGYDVHWYQQLPGTAPKLLIYGNSQRSSGVPDRFSGSKSGTSASLAITGLQAEDEADYYCQTYDSSGSARVVFGGGTKLTVLGQPKAAPSVTLFPPSSEELQANKATLVCLISDFYPGAVTVAWKADSSPVKAGVETTTPSKQSNNKYAASSYLSLTPEQWKSHKSYSCQVTHEGSTVEKTVAPTECS
notes: also called aTIGITx aPDL1-HCC; BsAb HCC
[1]
  binding result: binds
[2]
  binding result: binds

B4: anti-TIGIT x anti-PDL1 bispecific antibody HCN (VHH 2A3 fused to the N-terminal of the anti-PDL1 heavy chain) (bispecific antibody, human IgG1, lambda)
heavy: not shown
light: QSVVTQPPPVSGAPGQRVTISCTGSSSNVGAGYDVHWYQQLPGTAPKLLIYGNSQRSSGVPDRFSGSKSGTSASLAITGLQAEDEADYYCQTYDSSGSARVVFGGGTKLTVLGQPKAAPSVTLFPPSSEELQANKATLVCLISDFYPGAVTVAWKADSSPVKAGVETTTPSKQSNNKYAASSYLSLTPEQWKSHKSYSCQVTHEGSTVEKTVAPTECS
notes: also called aTIGITx aPDL1-HCN; BsAb HCN
[1]
  binding result: binds
[2]
  binding result: binds

B5: 2A3-LT-Fc-DLE (Fc mutations S239D, A330L and I332E) (Fc fusion)
chain: QVQLVESGGGVVQPGRSLRLSCAASGGSFSSYPMGWFRQAPGKERESVAAISSDLRFTYYADSVKGRFTISRDNSKNTLYLQMNSLRAEDTAVYYCAARTSGVGYYSRAQWYDYWGQGTLVTVSSEPKSCDKTHTCPPCPAPELLGGPDVFLFPPKPKDTLMISRTPEVTCVVVDVSHEDPEVKFNWYVDGVEVHNAKTKPREEQYNSTYRVVSVLTVLHQDWLNGKEYKCKVSNKALPLPEEKTISKAKGQPREPQVYTLPPSREEMTKNQVSLTCLVKGFYPSDIAVEWESNGQPENNYKTTPPVLDSDGSFFLYSKLTVDKSRWQQGNVFSCSVMHEALHNHYTQKSLSLSPGK
notes: also called DLE mutant
[3]
  EC50 (nM), TIGIT blockade NFAT luciferase reporter assay, Average: 0.97 nM
  EC50 (nM), TIGIT blockade NFAT luciferase reporter assay, Exp 1: 0.67 nM
  EC50 (nM), TIGIT blockade NFAT luciferase reporter assay, Exp 2: 0.92 nM
  EC50 (nM), TIGIT blockade NFAT luciferase reporter assay, Exp 3: 1.32 nM
[4]
  binding result: binds
[5]
  EC50 (nM), FcγRIIIA-mediated NFAT luciferase reporter activity, Average: 0.024 nM
  EC50 (nM), FcγRIIIA-mediated NFAT luciferase reporter activity, Exp 1: 0.027 nM
  EC50 (nM), FcγRIIIA-mediated NFAT luciferase reporter activity, Exp 2: 0.0295 nM
  EC50 (nM), FcγRIIIA-mediated NFAT luciferase reporter activity, Exp 3: 0.018 nM
  EC50 (nM), FcγRIIIA-mediated NFAT luciferase reporter activity, Exp 4: 0.02 nM
[6]
  binding result: binds

B6: 1A8 VHH (VHH)
VHH: QVQLVESGGGVVQPGRSLRLSCAASGPSFSSYPMGWFRQAPGKERESVAAISSRGRFTYYADSVKGRFTISRDNSKNTLYLQMNSLRAEDTAVYYCAARDSGSGYYSRAQWYDYWGQGTLVTVSS
notes: VHH in bacterial supernatant
[7]
  binding result: binds
[8]
  binding result: binds

B7: 6F12 VHH (VHH)
VHH: QVQLVESGGGVVQPGRSLRLSCAASGPSFTSYPMGWFRQAPGKERESVAAISSDGRFKYYADSVKGRFTISRDNSKNTLYLQMNSLRAEDTAVYYCAAEDSGSGYYSRAQWYDYWGQGTLVTVSS
notes: VHH in bacterial supernatant
[7]
  binding result: binds
[8]
  binding result: binds

B8: 7F6 VHH (VHH)
VHH: QVQLVESGGGVVQPGRSLRLSCAASGPMFSSYPMGWFRQAPGKERESVAAISSDPRFTYYADSVKGRFTISRDNSKNTLYLQMNSLRAEDTAVYYCAARDSGSGYYSRAQWYDYWGQGTLVTVSS
notes: VHH in bacterial supernatant
[7]
  binding result: binds
[8]
  binding result: binds

B9: 2A3 MI (2A3 with methionine to isoleucine in CDR2) (VHH)
VHH: QVQLVESGGGVVQPGRSLRLSCAASGGSFSSYPMGWFRQAPGKERESVAAISSDIRFTYYADSVKGRFTISRDNSKNTLYLQMNSLRAEDTAVYYCAARDSGVGYYSRAQWYDYWGQGTLVTVSS
[9]
  binding result: binds

B10: 2A3 ML (2A3 with methionine to leucine in CDR2) (VHH)
VHH: QVQLVESGGGVVQPGRSLRLSCAASGGSFSSYPMGWFRQAPGKERESVAAISSDLRFTYYADSVKGRFTISRDNSKNTLYLQMNSLRAEDTAVYYCAARDSGVGYYSRAQWYDYWGQGTLVTVSS
[9]
  binding result: binds

B11: 2A3 ML_DE (2A3 with M to L in CDR2 and D to E in CDR3) (VHH)
VHH: QVQLVESGGGVVQPGRSLRLSCAASGGSFSSYPMGWFRQAPGKERESVAAISSDLRFTYYADSVKGRFTISRDNSKNTLYLQMNSLRAEDTAVYYCAARESGVGYYSRAQWYDYWGQGTLVTVSS
[9]
  binding result: binds

B12: 15A5 VHH (VHH)
VHH: QVQLVESGGGLVQAGGSLRLSCAASERTFSSFAMGWFRQAPGKEREVVAAIDPSGRYIYYKDSVKGRFTMSRDNAKSTVYLQMNSLKPDDTARYYCAARIRGEGYYTRSSFYHYWGQGTQVTVSS
notes: VHH in bacterial supernatant
[10]
  inhibition of PVR binding to h-TIGIT: > 90%
